Residue numbers refer to the chain shown, from its start.
Legend:
Human HER2-His = molecular target: T1, Human HER2-His (Homo sapiens, UniProt P04626); experiment: Affinity to target protein by biolayer interferometry (Octet Red96e); type: binding; details: analyte Human HER2-His
T1 construct: His; purchased Sinobiologics 10004-H08H
Experimental: Antibody affinity was assessed using Octet Red96e (ForteBio). The association rate constant (ka), dissociation rate constant (kd) and affinity constant (KD) were measured by biolayer interferometry with anti-hIgG Fc (AHC) capture biosensors (Fortebio cat #18-5063). Each cycle was performed with orbital shake speed of 1,000 rpm. Antigen was titrated 1:2 from a suitable starting concentration in kinetics buffer (Fortebio, Cat #18-1105). A set of AHC biosensors was dipped in kinetics buffer for baseline step of 60s. Anti-Target VHH-Fc (5 μg/mL, in kinetics buffer) was loaded onto the biosensors for 240 s followed by a second baseline step of 30 s. The IgG captured sensors were dipped into buffer for single reference subtraction to compensate natural dissociation of capture IgG. Each biosensor was then dipped into corresponding concentration of target protein (human, murine or cynomolgus monomeric protein) for 600 s, followed by 1800 s of dissociation time in kinetics buffer, or conditions as optimized. A new set of AHC biosensors was used for every VHH-Fc. The data was analyzed by global fit 1:1 model for the association and dissociation step, (Octet software version v11.0).

[1] = Thermal stability by differential scanning fluorimetry (DSF); type: physicochemical
Experimental: Denaturing temperatures (Tm) of VHH-Fes were determined from differential scanning fluorimetry (DSF) using Protein Thermo Shift Dye Kit™ (ThermoFisher, Cat #: 4461146). Briefly, A total of 1 μg of antibody was used in each reaction. Melting curves of the antibodies were generated using an Applied Biosystems QuantStudio 7 Flex Real-Time PCR System with the recommended settings stated in the kit manual. The Tm's of the antibodies in Table 1 were then determined by using the ThermoFisher Protein Thermal Shift software (v.1.3). Tm1 of the VHH-Fcs was determined by DSF.

SHP-77 cells = experiment: Internalization assay (pHAb dye labelled secondary antibody, flow cytometry); type: cell-based; details: 75 nM, 37° C.
Experimental: (§1) VHH-Fcs were tested for internalization by target-expressing cells using a secondary antibody conjugated to a pH sensitive dye. Goat anti-hu IgG-Fc secondary antibody was amine-conjugated to a pH sensitive pHAb dye (Promega Cat #G9845) according to the manufacturer's instructions. The pHAb dye has low or no fluorescence at pH>7 but fluoresces in acidic environment upon antibody internalization. […] VHH-Fcs and hIgG1 isotype control were diluted in media to 75 nM. Cells were spun to remove supernatant, resuspended with the prepared primary antibodies and incubated on ice for 1 hour. Excess primary antibody was washed off from cells and then incubated with pHAb labelled secondary antibody on ice for 30 minutes. Excess secondary was then washed off and cells were resuspended in media. One set of samples was placed in an incubator at 37° C. to allow internalization, and another set was left on ice (0° C.) as a binding only control. Cells were sampled at different time points ranging from 0 to 24 hours. Cells were stained with DAPI and read by flow cytometry on 572/28 channel with iQue screener platform. The VHH-Fcs show higher fluorescence than the negative controls (isotype, buffer) on target-positive cells.

HEK-DLL3 cells = experiment: as above; type: cell-based; details: 75 nM, 37° C.
Experimental: as §1

FcγRIIa (R167) = molecular target: T2, FcγRIIa (R167) (Homo sapiens, UniProt P12318, H167R); experiment: FcγR affinity by biolayer interferometry (Octet Red96e); type: binding
T2 construct: purchased Acro Biosystems
T2 sequence (P12318 36-218 H167R limits assumed): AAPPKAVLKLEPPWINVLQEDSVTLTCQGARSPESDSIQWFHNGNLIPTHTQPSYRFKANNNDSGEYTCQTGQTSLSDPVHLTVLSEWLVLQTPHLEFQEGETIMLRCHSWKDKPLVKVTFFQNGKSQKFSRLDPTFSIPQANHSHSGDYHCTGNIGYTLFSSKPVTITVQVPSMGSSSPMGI
Experimental: (§2) VHH-Fcs were also tested for affinity to FcγRs by biolayer interferometry using the Octet Red96e platform. Each cycle is performed with orbital shake speed of 1,000 rpm. Streptavidin (SA) biosensors (Sartorius 18-5019) were rehydrated for 10 mins using kinetics buffer (PBS+0.1% BSA+0.02% Tween-20). Biotinylated-FcγRs (Acro Biosystems) were then loaded for 40-100 s onto SA biosensors at concentrations ranging between 1-5 μg/mL diluted in PBS. VHH-Fcs were serially diluted 1:2 in sample buffer (PBS+0.02% Tween-20) with starting concentrations ranging between 5000 nM to 37.5 nM. Loaded biosensors were then associated with VHH-Fcs for 60-120 s. VHH-Fc dissociation was measured for 30-900 s in sample buffer. Bound VHH-Fcs were then removed using 3 cycles of 5 s regeneration buffer (150 mM NaCl, 300 mM Sodium Citrate) and 5 s sample buffer. The data was analyzed either using a globally-fitted 1:1 Langmuir binding model (FcγRI) or steady state analysis (Octet software version HT v11.1).

FcγRIIIa (F176) = molecular target: T3, FcγRIIIa (F176) (Homo sapiens, UniProt P08637); experiment: as above; type: binding
T3 construct: purchased Acro Biosystems
Experimental: as §2

FcγRI = molecular target: T4, FcγRI (Homo sapiens, UniProt P12314); experiment: as above; type: binding
T4 construct: purchased Acro Biosystems
Experimental: as §2

FcγRIIb/c = molecular target: T5, FcγRIIb/c (Homo sapiens, UniProt P31994); experiment: as above; type: binding
T5 construct: purchased Acro Biosystems
T5 sequence (P31994 43-310): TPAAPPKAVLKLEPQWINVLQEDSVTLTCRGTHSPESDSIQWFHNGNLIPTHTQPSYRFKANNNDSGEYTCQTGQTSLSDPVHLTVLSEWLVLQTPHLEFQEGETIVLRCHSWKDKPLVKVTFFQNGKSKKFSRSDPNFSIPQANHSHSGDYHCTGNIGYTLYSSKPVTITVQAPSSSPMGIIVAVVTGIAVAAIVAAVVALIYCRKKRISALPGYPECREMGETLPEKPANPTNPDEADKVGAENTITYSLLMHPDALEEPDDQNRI
Experimental: as §2

FcγRIIa (H167) = molecular target: T6, FcγRIIa (H167) (Homo sapiens, UniProt P12318); experiment: as above; type: binding
T6 construct: purchased Acro Biosystems
T6 sequence (P12318 36-218 limits assumed): T2 sequence (P12318 36-218 H167R limits assumed) with R132H
Experimental: as §2

FcγRIIIa (V176) = molecular target: T7, FcγRIIIa (V176) (Homo sapiens, UniProt P08637, F176V); experiment: as above; type: binding
T7 construct: purchased Acro Biosystems
Experimental: as §2

T4 sequence (P12314 16-374): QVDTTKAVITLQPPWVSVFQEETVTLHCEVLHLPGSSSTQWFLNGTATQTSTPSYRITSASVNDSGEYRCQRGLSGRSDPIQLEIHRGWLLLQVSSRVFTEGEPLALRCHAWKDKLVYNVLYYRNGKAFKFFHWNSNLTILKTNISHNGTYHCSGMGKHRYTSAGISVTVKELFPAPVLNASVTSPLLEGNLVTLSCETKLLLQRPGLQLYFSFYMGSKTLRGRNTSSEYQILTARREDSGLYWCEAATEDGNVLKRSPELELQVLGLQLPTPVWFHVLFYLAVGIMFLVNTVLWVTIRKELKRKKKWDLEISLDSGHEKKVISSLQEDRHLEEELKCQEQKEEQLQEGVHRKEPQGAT
T3 sequence (P08637 17-208 limits assumed): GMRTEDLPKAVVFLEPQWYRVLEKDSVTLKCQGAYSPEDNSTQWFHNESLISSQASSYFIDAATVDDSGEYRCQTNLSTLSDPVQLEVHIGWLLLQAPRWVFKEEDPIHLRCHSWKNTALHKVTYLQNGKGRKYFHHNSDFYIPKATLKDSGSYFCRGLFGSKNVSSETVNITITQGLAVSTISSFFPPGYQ
T7 sequence (P08637 17-208 F176V limits assumed): as the sequence (P08637 17-208 limits assumed) above, with F160V counted along it

Substance: H101: anti-HER2 VHH-Fc (2RS15d VHH, human IgG1 Fc); FcRn wt, Fc effector wt [Compound H101]
- Kd (Human HER2-His): 3.79 nM
- Tm1 (thermostability) by DSF [1]: 67.5±0.1 Celsius
- Internalization (SHP-77 cells): internalized
- Internalization (HEK-DLL3 cells): internalized
- Kd (FcγRIIa (R167)): 160 nM
- Kd (FcγRIIIa (F176)): 1600 nM
- Kd (FcγRI): 1.01 nM
- Kd (FcγRIIb/c): 450 nM
- Kd (FcγRIIa (H167)): 340 nM
- Kd (FcγRIIIa (V176)): 480 nM

Source: US20260183437A1, “VHH ANTIBODY CONJUGATES WITH HETEROARYL CHELATORS” (ABDERA THERAPEUTICS INC., priority 2022, published 2026)
